Target: human glycerol kinase (His-GK) (human) (UniProt P32189)
Test: native gel or EMSA; native-PAGE without the denaturants of SDS-PAGE; purified His-GK ran at ~100 kDa, against ~55 kDa by 10% SDS-PAGE

- stoichiometry N: 2
Substance: human glycerol kinase (His-GK) (from UniProt P32189 1-559) (enzyme)

Reference: article PMC10130975
